Read-outs that look alike come from different tables or passages of the source.
Experiments:
[1] = biological target: T1, T4 DNA ligase (Enterobacteria phage T4?) (UniProt P00970)
T1 sequence: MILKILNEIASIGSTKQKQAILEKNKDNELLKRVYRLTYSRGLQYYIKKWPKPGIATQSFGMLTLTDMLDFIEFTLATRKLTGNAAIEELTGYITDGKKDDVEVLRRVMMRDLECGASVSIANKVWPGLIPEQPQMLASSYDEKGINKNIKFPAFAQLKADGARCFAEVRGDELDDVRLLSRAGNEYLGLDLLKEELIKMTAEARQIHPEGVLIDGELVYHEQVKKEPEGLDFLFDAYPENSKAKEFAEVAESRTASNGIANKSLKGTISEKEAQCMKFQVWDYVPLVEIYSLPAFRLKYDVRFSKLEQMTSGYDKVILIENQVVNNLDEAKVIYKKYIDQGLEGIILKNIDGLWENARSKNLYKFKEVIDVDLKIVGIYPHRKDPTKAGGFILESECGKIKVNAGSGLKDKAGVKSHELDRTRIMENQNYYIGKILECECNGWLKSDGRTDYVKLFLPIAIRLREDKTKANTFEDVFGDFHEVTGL

[2] = biological target: T1, T4 DNA ligase (Enterobacteria phage T4?); conditions: 5'-phosphate, 25 C
[3] = biological target: T2, SapI (UniProt O52712); assay: cleavage_in_vitro; conditions: SapI digestion giving 3-base overhang
T2 sequence: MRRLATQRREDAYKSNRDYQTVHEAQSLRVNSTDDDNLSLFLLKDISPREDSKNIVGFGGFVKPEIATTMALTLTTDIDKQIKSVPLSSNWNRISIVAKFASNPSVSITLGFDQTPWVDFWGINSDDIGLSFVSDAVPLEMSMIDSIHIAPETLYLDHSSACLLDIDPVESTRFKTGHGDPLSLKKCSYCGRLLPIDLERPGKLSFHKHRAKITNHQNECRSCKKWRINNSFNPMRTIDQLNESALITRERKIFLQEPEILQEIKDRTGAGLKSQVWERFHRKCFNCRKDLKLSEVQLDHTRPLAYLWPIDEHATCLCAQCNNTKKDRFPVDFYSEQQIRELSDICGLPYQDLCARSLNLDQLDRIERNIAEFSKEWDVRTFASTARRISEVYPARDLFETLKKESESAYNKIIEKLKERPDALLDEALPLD

GNN/TNN mismatch overhang substrate
relative ligation rate (fold faster than TNN/GNN) ([1]; ligation of edge G:T mismatch): 80

NNNCGAAGAGCTGCGATCCAGTGCGCCGTGCATTGATCAACGCAANNNNNNATCTCTCTCTTTTCCTCCTCCTCCGTTGTTGTTGTTGAGAGAGATNNNNNNTTGCGTTGATCAATGCACGGCGCACTGGATCGCAGCTCTTCG [AAA 3-base overhang substrate]
binding signal ([2]; correct ligations 1403.8 x10-5): 99.2 % fidelity

NNNCGAAGAGCTGCGATCCAGTGCGCCGTGCATTGATCAACGCAANNNNNNATCTCTCTCTTTTCCTCCTCCTCCGTTGTTGTTGTTGAGAGAGATNNNNNNTTGCGTTGATCAATGCACGGCGCACTGGATCGCAGCTCTTCG [GGC 3-base overhang substrate]
binding signal ([2]; correct ligations 864.7 x10-5): 53.6 % fidelity

NNNCGAAGAGCTGCGATCCAGTGCGCCGTGCATTGATCAACGCAANNNNNNATCTCTCTCTTTTCCTCCTCCTCCGTTGTTGTTGTTGAGAGAGATNNNNNNTTGCGTTGATCAATGCACGGCGCACTGGATCGCAGCTCTTCG [TAA 3-base overhang substrate]
binding signal ([2]; correct ligations only 209.0 x10-5): 98.6 % fidelity

TCAGGTNNNCGAAGAGCTGCGATCCAGTGCGCCGTGCATTGATCAACGCAANNNNNNATCTCTCTCTTTTCCTCCTCCTCCGTTGTTGTTGTTGAGAGAG [ligation library precursor (extended)]
activity [3]: > 95 % cut

TNN/GNN mismatch overhang substrate
relative ligation rate (relative to GNN/TNN) ([1]; stated as about 80-fold slower than 5'-G mismatch): 0.0125
